Each block holds one binder with its values, some of them ahead of it.
Legend:
Assay in all cases: high-speed co-sedimentation
[1] = biological target: F-actin (skeletal muscle) (Oryctolagus cuniculus, UniProt P68135)
F-actin (act1-102) = F-actin (act1-102) (Saccharomyces cerevisiae, UniProt P60010)
F-actin = F-actin (Saccharomyces cerevisiae, UniProt P60010)

Kd [1]: 7.1 µM
B1: Scp1(1-180) 1-180 (protein)
chain: MSYDKKADVTSLDEDLRQLRESKFSPEAIQNIKIWVYKSVLKEIAPPGDLLECLKDGTVLCKLANILYEADTGEANHISWKSSKMPFVQMDQISQFLSFSRKYGVPEDELFQTIDLFEKKDPAIVFQTLKSLSRYANKKHTDRFPVLGPQLSTKKPRPPVKSKPKHLQDGTGWSTFEYGY

Kd (F-actin (act1-102)): 7.9 µM | Kd (F-actin): 1.3 µM | Kd [1]: 2.1 µM
B2: Scp1 (protein)
chain: SYDKKADVTSLDEDLRQLRESKFSPEAIQNIKIWVYKSVLKEIAPPGDLLECLKDGTVLCKLANILYEADTGEANHISWKSSKMPFVQMDQISQFLSFSRKYGVPEDELFQTIDLFEKKDPAIVFQTLKSLSRYANKKHTDRFPVLGPQLSTKKPRPPVKSKPKHLQDGTGWSTFEYGYMKGASQATEGVVLGQRRDIV

Source: paper PMC2397485 (2008)
